According to US20180016327A1 (Chugai, published 2018):

B1: CFP0015 15L 31E (antibody, V domains shown)
VH: QVQLLESGGGLVQPGGSLRLSCAASGFTFSSYAMSWVRQAPGKGLEWVSAISGSGGSTYYADSVKGRFTISRDNSKNTLYLQMNSLRAEDTAVYYCARGDQIWYDQWYYFDMWGQGTLVTVSS
VL: DIQMTQSPSSLSASVGDRVTITCRASQSIEEDLAWYQQKPGKAPKLLIYEASNLQSGVPSRFSGSGSGTDFTLTISSLQPEDFATYYCQQYDSSPLTFGQGTKVEIK
B2: CFP0015 15L 32Y (antibody, V domains shown)
VH: QVQLLESGGGLVQPGGSLRLSCAASGFTFSSYAMSWVRQAPGKGLEWVSAISGSGGSTYYADSVKGRFTISRDNSKNTLYLQMNSLRAEDTAVYYCARGDQIWYDQWYYFDMWGQGTLVTVSS
VL: DIQMTQSPSSLSASVGDRVTITCRASQSIEDYLAWYQQKPGKAPKLLIYEASNLQSGVPSRFSGSGSGTDFTLTISSLQPEDFATYYCQQYDSSPLTFGQGTKVEIK
B3: CFP0015 15L 32T (antibody, V domains shown)
VH: QVQLLESGGGLVQPGGSLRLSCAASGFTFSSYAMSWVRQAPGKGLEWVSAISGSGGSTYYADSVKGRFTISRDNSKNTLYLQMNSLRAEDTAVYYCARGDQIWYDQWYYFDMWGQGTLVTVSS
VL: DIQMTQSPSSLSASVGDRVTITCRASQSIEDTLAWYQQKPGKAPKLLIYEASNLQSGVPSRFSGSGSGTDFTLTISSLQPEDFATYYCQQYDSSPLTFGQGTKVEIK
B4: CFP0015 15L 31H (antibody, V domains shown)
VH: QVQLLESGGGLVQPGGSLRLSCAASGFTFSSYAMSWVRQAPGKGLEWVSAISGSGGSTYYADSVKGRFTISRDNSKNTLYLQMNSLRAEDTAVYYCARGDQIWYDQWYYFDMWGQGTLVTVSS
VL: DIQMTQSPSSLSASVGDRVTITCRASQSIEHDLAWYQQKPGKAPKLLIYEASNLQSGVPSRFSGSGSGTDFTLTISSLQPEDFATYYCQQYDSSPLTFGQGTKVEIK
B5: CFP0015 15L 34N (antibody, V domains shown)
VH: QVQLLESGGGLVQPGGSLRLSCAASGFTFSSYAMSWVRQAPGKGLEWVSAISGSGGSTYYADSVKGRFTISRDNSKNTLYLQMNSLRAEDTAVYYCARGDQIWYDQWYYFDMWGQGTLVTVSS
VL: DIQMTQSPSSLSASVGDRVTITCRASQSIEDDLNWYQQKPGKAPKLLIYEASNLQSGVPSRFSGSGSGTDFTLTISSLQPEDFATYYCQQYDSSPLTFGQGTKVEIK
B6: CFP0015 15L 31Q (antibody, V domains shown)
VH: QVQLLESGGGLVQPGGSLRLSCAASGFTFSSYAMSWVRQAPGKGLEWVSAISGSGGSTYYADSVKGRFTISRDNSKNTLYLQMNSLRAEDTAVYYCARGDQIWYDQWYYFDMWGQGTLVTVSS
VL: DIQMTQSPSSLSASVGDRVTITCRASQSIEQDLAWYQQKPGKAPKLLIYEASNLQSGVPSRFSGSGSGTDFTLTISSLQPEDFATYYCQQYDSSPLTFGQGTKVEIK
B7: CFP0015 15L 32H (antibody, V domains shown)
VH: QVQLLESGGGLVQPGGSLRLSCAASGFTFSSYAMSWVRQAPGKGLEWVSAISGSGGSTYYADSVKGRFTISRDNSKNTLYLQMNSLRAEDTAVYYCARGDQIWYDQWYYFDMWGQGTLVTVSS
VL: DIQMTQSPSSLSASVGDRVTITCRASQSIEDHLAWYQQKPGKAPKLLIYEASNLQSGVPSRFSGSGSGTDFTLTISSLQPEDFATYYCQQYDSSPLTFGQGTKVEIK
B8: CFP0015 15L 32E (antibody, V domains shown)
VH: QVQLLESGGGLVQPGGSLRLSCAASGFTFSSYAMSWVRQAPGKGLEWVSAISGSGGSTYYADSVKGRFTISRDNSKNTLYLQMNSLRAEDTAVYYCARGDQIWYDQWYYFDMWGQGTLVTVSS
VL: DIQMTQSPSSLSASVGDRVTITCRASQSIEDELAWYQQKPGKAPKLLIYEASNLQSGVPSRFSGSGSGTDFTLTISSLQPEDFATYYCQQYDSSPLTFGQGTKVEIK
B9: CFP0015 15L 31Y (antibody, V domains shown)
VH: QVQLLESGGGLVQPGGSLRLSCAASGFTFSSYAMSWVRQAPGKGLEWVSAISGSGGSTYYADSVKGRFTISRDNSKNTLYLQMNSLRAEDTAVYYCARGDQIWYDQWYYFDMWGQGTLVTVSS
VL: DIQMTQSPSSLSASVGDRVTITCRASQSIEYDLAWYQQKPGKAPKLLIYEASNLQSGVPSRFSGSGSGTDFTLTISSLQPEDFATYYCQQYDSSPLTFGQGTKVEIK
B10: CFP0015 15L 31N (antibody, V domains shown)
VH: QVQLLESGGGLVQPGGSLRLSCAASGFTFSSYAMSWVRQAPGKGLEWVSAISGSGGSTYYADSVKGRFTISRDNSKNTLYLQMNSLRAEDTAVYYCARGDQIWYDQWYYFDMWGQGTLVTVSS
VL: DIQMTQSPSSLSASVGDRVTITCRASQSIENDLAWYQQKPGKAPKLLIYEASNLQSGVPSRFSGSGSGTDFTLTISSLQPEDFATYYCQQYDSSPLTFGQGTKVEIK
B11: CFP0015 15L 32Q (antibody, V domains shown)
VH: QVQLLESGGGLVQPGGSLRLSCAASGFTFSSYAMSWVRQAPGKGLEWVSAISGSGGSTYYADSVKGRFTISRDNSKNTLYLQMNSLRAEDTAVYYCARGDQIWYDQWYYFDMWGQGTLVTVSS
VL: DIQMTQSPSSLSASVGDRVTITCRASQSIEDQLAWYQQKPGKAPKLLIYEASNLQSGVPSRFSGSGSGTDFTLTISSLQPEDFATYYCQQYDSSPLTFGQGTKVEIK
B12: CFP0015 15L 32S (antibody, V domains shown)
VH: QVQLLESGGGLVQPGGSLRLSCAASGFTFSSYAMSWVRQAPGKGLEWVSAISGSGGSTYYADSVKGRFTISRDNSKNTLYLQMNSLRAEDTAVYYCARGDQIWYDQWYYFDMWGQGTLVTVSS
VL: DIQMTQSPSSLSASVGDRVTITCRASQSIEDSLAWYQQKPGKAPKLLIYEASNLQSGVPSRFSGSGSGTDFTLTISSLQPEDFATYYCQQYDSSPLTFGQGTKVEIK
B13: CFP0015 15L 31T (antibody, V domains shown)
VH: QVQLLESGGGLVQPGGSLRLSCAASGFTFSSYAMSWVRQAPGKGLEWVSAISGSGGSTYYADSVKGRFTISRDNSKNTLYLQMNSLRAEDTAVYYCARGDQIWYDQWYYFDMWGQGTLVTVSS
VL: DIQMTQSPSSLSASVGDRVTITCRASQSIETDLAWYQQKPGKAPKLLIYEASNLQSGVPSRFSGSGSGTDFTLTISSLQPEDFATYYCQQYDSSPLTFGQGTKVEIK
B14: CFP0015 15L 31S (antibody, V domains shown)
VH: QVQLLESGGGLVQPGGSLRLSCAASGFTFSSYAMSWVRQAPGKGLEWVSAISGSGGSTYYADSVKGRFTISRDNSKNTLYLQMNSLRAEDTAVYYCARGDQIWYDQWYYFDMWGQGTLVTVSS
VL: DIQMTQSPSSLSASVGDRVTITCRASQSIESDLAWYQQKPGKAPKLLIYEASNLQSGVPSRFSGSGSGTDFTLTISSLQPEDFATYYCQQYDSSPLTFGQGTKVEIK
B15: CFP0015 15L 32N (antibody, V domains shown)
VH: QVQLLESGGGLVQPGGSLRLSCAASGFTFSSYAMSWVRQAPGKGLEWVSAISGSGGSTYYADSVKGRFTISRDNSKNTLYLQMNSLRAEDTAVYYCARGDQIWYDQWYYFDMWGQGTLVTVSS
VL: DIQMTQSPSSLSASVGDRVTITCRASQSIEDNLAWYQQKPGKAPKLLIYEASNLQSGVPSRFSGSGSGTDFTLTISSLQPEDFATYYCQQYDSSPLTFGQGTKVEIK

target: T1, human C5 (human, UniProt P01031 19-673; P01031 678-1676, Beta and alpha chains are disulfide-linked and the protein is glycosylated.); assay: Biacore, captured antibody, pH 7.4, 37 C;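 note: biacore binding response of anti-C5 antibody light chain variants captured on chip with human C5 injected, ACES running buffer containing 1.2 mM CaCl₂, parent light chain antibody set to 100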
T1 construct: Either in-house recombinant C5 or plasma derived C5 (CALBIOCHEM) was used; also called recombinant human C5; plasma derived human C5

Point of comparison: B8, “% binding (parent = 100)” value 87.3%. Against it:
- B1 — lower, 22.4%
- B2 — lower, 15.1%
- B3 — lower, 78.1%
- B4 — lower, 59.4%
- B5 — higher, 100%
- B6 — lower, 25.8%
- B7 — lower, 0.8%
- B9 — higher, 102%
- B10 — lower, 42.2%
- B11 — higher, 328%
- B12 — higher, 167%
- B13 — lower, 15.8%
- B14 — lower, 36.5%
- B15 — lower, 10.9%
